Publication PMC8476643 (2021)

Target: SARS-CoV-2 receptor-binding domain (RBD) (SARS-CoV-2, UniProt P0DTC2)
Assay: SPR

B1: 7D6 monoclonal antibody (antibody, V domains shown)
VH: EVQLQQSGAELVRPGASVKLSCTASGFNIKDTYIHWVKQRPEQGLEWIGRIDPGDGDTEYDPSFQGKATITADTSSNTAYLELSSLTSEDTAVYYCTRFYDYVDYGMDYWGQGTSVTVSS
VL: DIQMTQSPASLSASVGETVTITCRASGNIHNYLAWYQQKQGKSPQLLVYNAKTLADGVPSRFSGSGSGTQYSLKINSLQPEDFGSYYCQHFWSTPPWTFGGGTKLEVK
Question: B1 was tested. Which Kd did it give?
Answer: Its Kd is 3 pM.
